Experimental data taken from US20180148477A1 (published 2018).
Bridge positions count the residues as written; N and C are the ends. Square brackets hold non-standard residues; d marks the D form. Ends that are not written are not given here. 1Nal = N[C@@H](Cc1cccc2ccccc12)C(=O)O; 2Nal = N[C@@H](Cc1ccc2ccccc2c1)C(=O)O; d1Nal = N[C@H](Cc1cccc2ccccc12)C(=O)O; d2Nal = N[C@H](Cc1ccc2ccccc2c1)C(=O)O; NMeR = CN[C@@H](CCCNC(=N)N)C(=O)O; hPhe = N[C@@H](CCc1ccccc1)C(=O)O; Aic = NC1(C(=O)O)Cc2ccccc2C1; NMeK = CN[C@@H](CCCCN)C(=O)O; Pen = CC(C)(S)[C@H](N)C(=O)O; dNMeK = CN[C@H](CCCCN)C(=O)O; Dab = NCC[C@H](N)C(=O)O; Dap = NC[C@H](N)C(=O)O

Legend:
[1] = molecular target: human α4β7 integrin on cells (human) (UniProt P13612); test: RPMI8866 adhesion to MAdCAM-1
[2] = molecular target: rh integrin α4β7 (R&D Systems #5397-A30) (human) (UniProt P13612); test: competition ELISA vs MAdCAM-1
[3] = molecular target: α4β1 (R&D Systems #5668-A4) (UniProt P13612); test: competition ELISA vs VCAM-1

| Binder | IC50 [1] [nM] | IC50 [2] [nM] | IC50 [3] [nM] |
| --- | --- | --- | --- |
| Ac-[Pen][NMeR]SDTL[Pen]W[dE][Dab]-NH2 (disulfide 1-7; SMILES CC(=O)N[C@@H]1C(=O)N(C)[C@@H](CCCNC(=N)N)C(=O)N[C@@H](CO)C(=O)N[C@@H](CC(=O)O)C(=O)N[C@@H]([C@@H](C)O)C(=O)N[C@@H](CC(C)C)C(=O)N[C@H](C(=O)N[C@@H](Cc2c[nH]c3ccccc23)C(=O)N[C@H](CCC(=O)O)C(=O)N[C@@H](CCN)C(N)=O)C(C)(C)SSC1(C)C) [SEQ ID NO: 56] | > 500 |  |  |
| Ac-[Pen][NMeR]SDTL[Pen][2Nal][hPhe][dK]-NH2 (disulfide 1-7; SMILES CC(=O)N[C@@H]1C(=O)N(C)[C@@H](CCCNC(=N)N)C(=O)N[C@@H](CO)C(=O)N[C@@H](CC(=O)O)C(=O)N[C@@H]([C@@H](C)O)C(=O)N[C@@H](CC(C)C)C(=O)N[C@H](C(=O)N[C@@H](Cc2ccc3ccccc3c2)C(=O)N[C@@H](CCc2ccccc2)C(=O)N[C@H](CCCCN)C(N)=O)C(C)(C)SSC1(C)C) [SEQ ID NO: 50] |  | > 10 |  |
| Ac-[Pen][NMeR]SDTL[Pen][2Nal]E[dNMeK]-NH2 (disulfide 1-7 (inferred)) [SEQ ID NO: 15] |  | < 10 |  |
| Ac-[Pen][NMeR]SDTL[Pen][d2Nal]E[dK]-NH2 (disulfide 1-7; also: dimer via DIG) [SEQ ID NO: 35] | > 100 |  |  |
| Ac-[Pen][NMeR]SDTL[Pen]W[dE][Dap]-NH2 (disulfide 1-7; SMILES CC(=O)N[C@@H]1C(=O)N(C)[C@@H](CCCNC(=N)N)C(=O)N[C@@H](CO)C(=O)N[C@@H](CC(=O)O)C(=O)N[C@@H]([C@@H](C)O)C(=O)N[C@@H](CC(C)C)C(=O)N[C@H](C(=O)N[C@@H](Cc2c[nH]c3ccccc23)C(=O)N[C@H](CCC(=O)O)C(=O)N[C@@H](CN)C(N)=O)C(C)(C)SSC1(C)C) [SEQ ID NO: 55] | > 100 |  |  |
| Ac-[Pen][NMeR]SDTL[Pen][1Nal][dE][dK]-NH2 (disulfide 1-7; SMILES CC(=O)N[C@@H]1C(=O)N(C)[C@@H](CCCNC(=N)N)C(=O)N[C@@H](CO)C(=O)N[C@@H](CC(=O)O)C(=O)N[C@@H]([C@@H](C)O)C(=O)N[C@@H](CC(C)C)C(=O)N[C@H](C(=O)N[C@@H](Cc2cccc3ccccc23)C(=O)N[C@H](CCC(=O)O)C(=O)N[C@H](CCCCN)C(N)=O)C(C)(C)SSC1(C)C) [SEQ ID NO: 8] |  | > 25 |  |
| Ac-[Pen][NMeR]SDTL[Pen]W[Aic][dK]-NH2 (disulfide 1-7; SMILES CC(=O)N[C@@H]1C(=O)N(C)[C@@H](CCCNC(=N)N)C(=O)N[C@@H](CO)C(=O)N[C@@H](CC(=O)O)C(=O)N[C@@H]([C@@H](C)O)C(=O)N[C@@H](CC(C)C)C(=O)N[C@H](C(=O)N[C@@H](Cc2c[nH]c3ccccc23)C(=O)NC2(C(=O)N[C@H](CCCCN)C(N)=O)Cc3ccccc3C2)C(C)(C)SSC1(C)C) [SEQ ID NO: 51] |  | > 25 |  |
| Ac-[Pen][NMeR]SDTL[Pen][2Nal][dE][dNMeK]-NH2 (disulfide 1-7 (inferred)) [SEQ ID NO: 13] | > 100 | > 10 |  |
| Ac-[Pen][NMeR]SDTL[Pen][1Nal][dE][dNMeK]-NH2 (disulfide 1-7 (inferred)) [SEQ ID NO: 12] |  | > 25 |  |
| Ac-[Pen][NMeR]SDTL[Pen][d2Nal]E[dK]-NH2 (disulfide 1-7; SMILES CC(=O)N[C@@H]1C(=O)N(C)[C@@H](CCCNC(=N)N)C(=O)N[C@@H](CO)C(=O)N[C@@H](CC(=O)O)C(=O)N[C@@H]([C@@H](C)O)C(=O)N[C@@H](CC(C)C)C(=O)N[C@H](C(=O)N[C@H](Cc2ccc3ccccc3c2)C(=O)N[C@@H](CCC(=O)O)C(=O)N[C@H](CCCCN)C(N)=O)C(C)(C)SSC1(C)C) [SEQ ID NO: 11] |  | > 25 |  |
| Ac-[Pen][NMeR]SDTL[Pen][d1Nal]E[dK]-NH2 (disulfide 1-7; SMILES CC(=O)N[C@@H]1C(=O)N(C)[C@@H](CCCNC(=N)N)C(=O)N[C@@H](CO)C(=O)N[C@@H](CC(=O)O)C(=O)N[C@@H]([C@@H](C)O)C(=O)N[C@@H](CC(C)C)C(=O)N[C@H](C(=O)N[C@H](Cc2cccc3ccccc23)C(=O)N[C@@H](CCC(=O)O)C(=O)N[C@H](CCCCN)C(N)=O)C(C)(C)SSC1(C)C) [SEQ ID NO: 10] |  | > 10 |  |
| Ac-[Pen][NMeR]SDTL[Pen][2Nal]Y[dK]-NH2 (disulfide 1-7; also: dimer via DIG) [SEQ ID NO: 23] | < 10 |  | > 100 |
| Ac-[Pen][NMeR]SDTL[Pen][2Nal][dE][dK]-NH2 (disulfide 1-7; also: dimer via DIG) [SEQ ID NO: 29] | > 10 | < 10 |  |
| Ac-[Pen][NMeR]SDTL[Pen][2Nal][dE][dNMeK]-NH2 (disulfide 1-7; also: dimer via DIG) [SEQ ID NO: 39] | > 10 |  |  |
| Ac-[Pen][NMeR]SDTL[Pen][1Nal]E[dNMeK]-NH2 (disulfide 1-7; SMILES CC(=O)N[C@@H]1C(=O)N(C)[C@@H](CCCNC(=N)N)C(=O)N[C@@H](CO)C(=O)N[C@@H](CC(=O)O)C(=O)N[C@@H]([C@@H](C)O)C(=O)N[C@@H](CC(C)C)C(=O)N[C@H](C(=O)N[C@@H](Cc2cccc3ccccc23)C(=O)N[C@@H](CCC(=O)O)C(=O)N(C)[C@H](CCCCN)C(N)=O)C(C)(C)SSC1(C)C) [SEQ ID NO: 18] |  | > 10 | > 500 |
| Ac-[Pen][NMeR]SDTL[Pen][2Nal][dE][dK]-NH2 (disulfide 1-7; SMILES CC(=O)N[C@@H]1C(=O)N(C)[C@@H](CCCNC(=N)N)C(=O)N[C@@H](CO)C(=O)N[C@@H](CC(=O)O)C(=O)N[C@@H]([C@@H](C)O)C(=O)N[C@@H](CC(C)C)C(=O)N[C@H](C(=O)N[C@@H](Cc2ccc3ccccc3c2)C(=O)N[C@H](CCC(=O)O)C(=O)N[C@H](CCCCN)C(N)=O)C(C)(C)SSC1(C)C) [SEQ ID NO: 9] | > 100 | > 10 |  |

The remaining lines, values ahead:

| IC50 [1] [nM] | IC50 [2] [nM] | IC50 [3] [nM] | Binder |
| --- | --- | --- | --- |
| > 10 | > 10 |  | Ac-[Pen][NMeR]SDTL[Pen][2Nal]E[NMeK]-NH2 (disulfide 1-7 (inferred); also: homodimer via DIG) [SEQ ID NO: 138] |
| > 1000 |  |  | Ac-[Pen][NMeR]SDTL[Pen]WE[Dab]-NH2 (disulfide 1-7; SMILES CC(=O)N[C@@H]1C(=O)N(C)[C@@H](CCCNC(=N)N)C(=O)N[C@@H](CO)C(=O)N[C@@H](CC(=O)O)C(=O)N[C@@H]([C@@H](C)O)C(=O)N[C@@H](CC(C)C)C(=O)N[C@H](C(=O)N[C@@H](Cc2c[nH]c3ccccc23)C(=O)N[C@@H](CCC(=O)O)C(=O)N[C@@H](CCN)C(N)=O)C(C)(C)SSC1(C)C) [SEQ ID NO: 61] |
| > 1000 |  |  | Ac-[Pen][NMeR]SDTL[Pen]WE[Dab] (disulfide 1-7; also: C-terminus written Dab-Ac, acetyl place unclear) [SEQ ID NO: 62] |
| > 1000 |  |  | Ac-[Pen][NMeR]SDTL[Pen]W[dE][Dap] (disulfide 1-7; also: C-terminus written Dap-Ac, acetyl place unclear) [SEQ ID NO: 63] |
| > 1000 |  |  | Ac-[Pen][NMeR]SDTL[Pen]WE[Dap] (disulfide 1-7; also: C-terminus written Dap-Ac, acetyl place unclear) [SEQ ID NO: 60] |
| > 10000 | 250 |  | [Pen][NMeR]SDTL[Pen][2Nal]E (disulfide 1-7 (inferred); not fully specified (bridges); printed as Cyclo-[Pen-N-Me-R-S-D-T-L-Pen-2-Nal-E], Pen-Pen disulfide) [SEQ ID NO: 143] |
| > 10000 |  |  | Ac-[Pen][NMeR]SDTL[Pen]WE[Dap]-NH2 (disulfide 1-7; SMILES CC(=O)N[C@@H]1C(=O)N(C)[C@@H](CCCNC(=N)N)C(=O)N[C@@H](CO)C(=O)N[C@@H](CC(=O)O)C(=O)N[C@@H]([C@@H](C)O)C(=O)N[C@@H](CC(C)C)C(=O)N[C@H](C(=O)N[C@@H](Cc2c[nH]c3ccccc23)C(=O)N[C@@H](CCC(=O)O)C(=O)N[C@@H](CN)C(N)=O)C(C)(C)SSC1(C)C) [SEQ ID NO: 59] |
|  | > 10 |  | Ac-[Pen][NMeR]SDTL[Pen][2Nal][dK]-NH2 (disulfide 1-7; SMILES CC(=O)N[C@@H]1C(=O)N(C)[C@@H](CCCNC(=N)N)C(=O)N[C@@H](CO)C(=O)N[C@@H](CC(=O)O)C(=O)N[C@@H]([C@@H](C)O)C(=O)N[C@@H](CC(C)C)C(=O)N[C@H](C(=O)N[C@@H](Cc2ccc3ccccc3c2)C(=O)N[C@H](CCCCN)C(N)=O)C(C)(C)SSC1(C)C) [SEQ ID NO: 88] |
| > 1000 |  |  | Ac-[Pen][NMeR]SDTL[Pen]W[dE][Dab] (disulfide 1-7; also: C-terminus written Dab-Ac, acetyl place unclear) [SEQ ID NO: 64] |
